From patent US20220323599A1, “ANTI-BCMA ANTIBODY CONJUGATE, COMPOSITIONS COMPRISING THE SAME, AND METHODS OF MAKING AND USING THE SAME” (CELGENE CORPORATION, priority 2019, published 2022)

Key:
[1] = biological target: human BCMA on cells (endogenous on multiple myeloma cell lines; stably transfected 293T-hBCMA) (human) (UniProt Q02223); assay: cell-based or functional assay
[2] = biological target: Recombinant human BCMA ECD protein (Acro Biosystems) (human) (UniProt Q02223); assay: competition ELISA on coated human BCMA ECD, competitor BAFF at 1 ng/ml, Experiment No. 1
[3] = biological target: cynomolgus BCMA on stably transfected 293T cells (cynomolgus monkey); assay: flow cytometry, 293T-cBCMA cells
[4] = biological target: human BCMA on cells (endogenous on multiple myeloma cell lines; stably transfected 293T-hBCMA) (human) (UniProt Q02223); assay: flow cytometry, 293T-hBCMA cells
[5] = biological target: human BCMA on cells (endogenous on multiple myeloma cell lines; stably transfected 293T-hBCMA) (human) (UniProt Q02223); assay: flow cytometry, ARP-1 cells

human BCMA on cells (endogenous on multiple myeloma cell lines; stably transfected 293T-hBCMA) (human), sequence (Q02223 whole entry, the tested form may be a part): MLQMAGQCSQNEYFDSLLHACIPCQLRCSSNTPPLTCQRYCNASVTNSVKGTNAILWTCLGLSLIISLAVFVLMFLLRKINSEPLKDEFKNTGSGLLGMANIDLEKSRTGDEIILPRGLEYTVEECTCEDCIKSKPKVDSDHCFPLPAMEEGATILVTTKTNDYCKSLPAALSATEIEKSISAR
cynomolgus BCMA on stably transfected 293T cells (cynomolgus monkey), sequence (Q02223 other isoform, or with tags, fused parts or gaps): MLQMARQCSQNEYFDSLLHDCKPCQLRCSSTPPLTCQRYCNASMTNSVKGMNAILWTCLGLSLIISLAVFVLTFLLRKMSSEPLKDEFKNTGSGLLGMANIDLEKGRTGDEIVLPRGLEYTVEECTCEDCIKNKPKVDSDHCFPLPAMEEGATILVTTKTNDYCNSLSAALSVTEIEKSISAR
Recombinant human BCMA ECD protein (Acro Biosystems) (human), sequence (Q02223 1-54 limits assumed): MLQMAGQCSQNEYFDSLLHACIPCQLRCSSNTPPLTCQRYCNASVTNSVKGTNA

IC50 [2]: 7 nM
Bmax [3]: 981 MFI
Kd [3]: 8.6 nM
Bmax [4]: 856 MFI
Bmax [5]: 45 MFI
Kd [5]: 2.4 nM
Substance: Conjugate 1: anti-BCMA antibody J6M0 conjugated to maleimido-caproyl monomethyl auristatin F (mc-MMAF), surrogate ADC for GSK2857916
cell killing EC50, ARP-1 [1]: 0.52 nM
cell killing EC50, ARP-1, no competing reagent [1]: 0.6 nM
cell killing EC50, MM.1S [1]: 0.68 nM
cell killing EC50, NCI-H929 [1]: 0.29 nM
cell killing EC50, NCI-H929, Experiment 1 [1]: 0.2 nM
cell killing EC50, NCI-H929, Experiment 2 [1]: 0.2 nM
cell killing EC50, NCI-H929, no competing reagent [1]: 0.4 nM
cell killing EC50, OPM2, Experiment 1 [1]: 0.8 nM
cell killing EC50, OPM2, Experiment 2 [1]: 0.9 nM
cell killing EC50, OPM2, no competing reagent [1]: 2.3 nM
cell killing EC50, OPM-2 [1]: 1.4 nM
cell killing EC50, U266B1 [1]: 0.32 nM
cell killing EC50, U266B1, Experiment 1 [1]: 0.2 nM
cell killing EC50, U266B1, Experiment 2 [1]: 0.3 nM
cell killing EC50, U266B1, no competing reagent [1]: 0.4 nM
cell killing Span, ARP-1 [1]: 95%
cell killing Span, ARP-1, no competing reagent [1]: 97%
cell killing Span, MM.1S [1]: 86%
cell killing Span, NCI-H929 [1]: 91%
cell killing Span, NCI-H929, Experiment 1 [1]: 85%
cell killing Span, NCI-H929, Experiment 2 [1]: 86%
cell killing Span, NCI-H929, no competing reagent [1]: 86%
cell killing Span, OPM2, Experiment 1 [1]: 95%
cell killing Span, OPM2, Experiment 2 [1]: 94%
cell killing Span, OPM2, no competing reagent [1]: 92%
cell killing Span, OPM-2 [1]: 93%
cell killing Span, RPMI-8226 [1]: 40%
cell killing Span, U266B1 [1]: 90%
cell killing Span, U266B1, Experiment 1 [1]: 85%
cell killing Span, U266B1, Experiment 2 [1]: 84%
cell killing Span, U266B1, no competing reagent [1]: 90%
